Earlier results, collected in article PMC5580684.
Values joined by “and” are separate entries in the source; they are usually repeats but may differ in a detail not shown here. Identical values can stand only once.

Biological target: DNA polymerase beta (Homo sapiens) (UniProt P06746)

Kd: 300 µM and 100 µM
Substance: XRCC1 NTD (from UniProt P18887)
